This series is described as follows: label from the status in PepcDB records.
As to “MTTQTIDSAPHATWFVGASYGGTDDQMPRFLAEGIWENGYDDKLLEVVRSMRPGERIAIKSSYTRKHGLPFDSRGRAVSVMGIKAVGTITENLNDGKRVKVDWAKVEPVREWYFYTHRATIWRVLPGEWMNDALIAFAFDGKPQDVDRFRNEPFWRERYGTTSPEKQRFEWTDFYEAVAEKLLAHADDRTPLIEGIHEIASRVPGLTYLQDKFPDGTSGPLRDICPFTTMGTFNRSMTDANRKTLAGELAKLLGVTVPVPPSFEGIPVLNNQRSWFFAYADKRGAGDIDALWKVFVAASKMVDGDQLDTRDAFIRAYDEATQVWGVAWNLSTGLYWAHPWEFLTLDSQSRHYINKRLGLNVAISGQQGPCDGRAYLKLLDDLRSRFGEDGYPVHSFPDLSLASWMYKDPVDEPVPAGDIGTNAGAEQETEGEVREAFQVAAPIVPYSVEDILKDGCFLERAEIDRLLDRLRTKKNLILQGPPGTGKTWLAKRLAFALMGQKDDSKVRAVQFHPNLSYEDFVRGWRPTGEGKLSLADGVFMEAIKAASKDPSSKFVVVIEEINRGNPAQIFGELLTLLEAGKRTPNEALELCYPDADGKRRPVHIPENLYVVGTMNIADRSLALVDLALRRRFAFVGLEPRLGQVWRDWVVKECAVDPGLVADIERRIAELNDQIAADARLGKQFRIGHSYVTPAHRLEAGDTKKWFLQVVETEIGPLLDEYWFDAPDEAQKAIARLTQGWLEHHHHHH”, the protein production result is given as “not failed”.

Turning to “MRKLDICIKSGLHFRTHRQHPDDDSVKTLTLECVDPQMVPVPRHWGRLAHRLLERAMTQATRPLPPPDGMGPTYRKILWRLIPFLFVCNLFNYLDRVNVGFAKLQMLRDLGMSQTVYGLGAGIFFIGYLACGVPSNLILQRIGARRWVAIMMVSWGLLSTCLLFVRTPAGFYTLRLLTGAAEAGFFPGILLYLTRWFPRDRHGRVTTVFMSAIPISGVLGGPLSGWILGYFSAGQGGLAGWQWMFLLQGLPTVLLGNGVWFLLSDGVQEASWLNPQEKQALARVLADDEAGKPAGASTSLRAVLCNPAVWLLGTVYFCIQSGVYAINFWLPSIIQDSGVTDPVRIGLMSAIPYLAAAVFMVLMGRSADRRGERRWHLVIPLLMGAAGLCIAASVTDNLGLALFGMTLATMGAVSGLPLFWPLTNGFLTAAAAAGGLALINSTGQVAGFVSPYLVGWIKDTTHSTQLALYVLAGAMLLGAALVLRVPACAVNQ”, the protein production result was “failed”.

As to “LYPILIGIYASVIPFYIALYSTFRLLSYIDENKAFSQISVKALNNIKHCTIAISILYMATMPFVYLLADKDDAPGLIIIGMVPIFASLVISVFSAVLQRLLQEAIDIKSENDLTV”, the protein production result was “failed”.

For the sequence “MHSVPSTGFPQSEFSGPFWTGRGVACARPNRYVWTARPSDQSSRRMSTSFSRRLRRLQSQKETALCVGLDPVPARFPPSLQDGRLRTDAVRAFCTTIVEATAPYACAFKPNFAFFEALGPAGLTVLDQVVTTIPDDCLVLGDAKRGDIGHSARHYAASIYEELGLDACTVSPYLGRDSVMPFLEHEGTCTFVLARTSNDGAADLQEACTCDGTPLYRHVARRVQAWNADAPGGAGLVVGATAPAALQDLRSLCPSLPFLVPGVGAQGGDAAAVMDAAATDEGPVLVNSSRSILYASEGPNYANAAADAARALRDALNGGASSSRGAPSPPALEHHHHHH”, the protein production entry was “failed”. Next, “MACGATLKRPMEFEAALLSPGSPKRRRCAPLPGPTPGLRPPDAEPPPLQMQTPPASLQQPAPPGSERRLPTPEQIFQNIKQEYNRYQRWRHLEVVLSQSEACTSETQPSSSALTAPGSPGAFWMKKDQPTFTLRQVGIICERLLKDYEDKVREEYEQILSTKLAEQYESFVKFTHDQIMRRYGTRPTSYVS”: “failed”; “MADEMMVKELEEVVVRFSGDSGDGMQLAGNIFSNVSATVGNDICTFPDYPADIRAPQGSLTGVSGFQVHVGASKIFTPGDHCHVLVAMNPAALKTQIKFCKPQGLVITDSDSFGEKDLEKAQFKTGNPFEEMGITQQVLEVPISSMCKESLKNSGLDNKAMLRCKNMFALGLVCWLFNRNLSAAEKMLNEKFAKKPEIAAANIKVLNDGYNYGANTHASTSTYKIESKTPKAAGLYTDINGNKATSYGLIAAAEKAGLELYLGSYPITPATDILHELAKHKSLGVKTVQCEDEIAGCASAVGAAFAGDLAVTTTSGPGVCLKSEAMNLAVIAELPLVVVNVQRGGPSTGMPTKSEQTDLLQALYGRNGESPMPVIAATSPTNCFDAAYMAAKIALEHMTPVVLLTDAFIANGSAAWKLPNMDEYPAINPPYVTPDMIGTWTPFQRNEKTGVRYWAVPGTEGFMHRIGGLEKSSETGVISTEPENHQKMTLLRQAKVDKIADSIPEQEVQGDADADLLVVGWGGTYGHLYSAVEHMRKNGKKVALAHFQYINPLPKNTAEILKKYKKIVVAEQNLGQFAGYLRMKVPGLNISQFNQVKGQPFVTRELVEAFTKLLEE”: “not failed”. Next, “MEVRWCATSDPEQHKCGNMSEAFREAGIQPSLLCVRGTSADHCVQLIAAQEADAITLDGGAIYEAGKEHGLKPVVGEVYDQEVGTSYYAVAVVRRSSHVTIDTLKGVKSCHTGINRTVGWNVPVGYLVESGRLSVMGCDVLKAVSDYFGGSCVPGAGETSYSESLCRLCRGDSSGEGVCDKSPLERYYDYSGAFRCLAEGAGDVAFVKHSTVLENTDGKTLPSWGQALLSQDFELLCRDGSRADVTEWRQCHLARVPAHAVVVRADTDGGLIFRLLNEGQRLFSHEGSSFQMFSSEAYGQKDLLFKDSTSELVPIATQTYEAWLGHEYLHAMKGLLCDPNRLPPYLRWCVLSTPEIQKCGDMAVAFRRQRLKPEIQCVSAKSPQHCMERIQAEQVDAVTLSGEDIYTAGKKYGLVPAAGEHYAPEDSSNSYYVVAVVRRDSSHAFTLDELRGKRSCHAGFGSPAGWDVPVGALIQRGFIRPKDCDVLTAVSEFFNASCVPVNNPKNYPSSLCALCVGDEQGRNKCVGNSQERYYGYRGAFRCLVENAGDVAFVRHTTVFDNTNGHNSEPWAAELRSEDYELLCPNGARAEVSQFAACNLAQIPPHAVMVRPDTNIFTVYGLLDKAQDLFGDDHNKNGFKMFDSSNYHGQDLLFKDATVRAVPVGEKTTYRGWLGLDYVAALEGMSSQQC”: “failed”; “MAKEKTLDDLFHDTLKDIYYAERKILKALPKMARAAQAPELKAAFEKHKEQTETHVERLQQVFEMIGKRAQGKTCEAIEGIVAEGEEIMDEFKGTAALDAGLISAAQAVEHYEISRYGTLKTWAKTIGLKDAVSLLDATLKEEVVTDEDLTKLAMAQVNKKAA”: “not failed”.

For the sequence “MTEIKYKVITKDAFALPYTIIKAKNQPTKGVIVYIHGGGLMFGKANDLSPQYIDILTEHYDLIQLSYRLLPEVSLDCIIEDVYASFDAIQSQYSNCPIFTFGRSSGAYLSLLIARDRDIDGVIDFYGYSRINTEPFKTTNSYYAKIAQSINETMIAQLTSPTPVVQDQIAQRFLIYVYARGTGKWINMINIADYTDSKYNIAPDELKTLPPVFIAHCNGDYDVPVEESEHIMNHVPHSTFERVNKNEHDFDRRPNDEAITIYRKVVDFLNAITMV”, the protein production result is reported as “not failed”.

Turning to “GQRQPSEQELLFRQQALLLEQQRIHQLRNYQASMEAAGIPVSFGGHRPLSRAQSSPASATFPVSVQEPPTKPRFTTGLVYDTLMLKHQCTCGSSSSHPEHAGRIQSIWSRLQETGLRGKCECIRGRKATLEELQTVHSEAHTLLYGTNPLNRQKLDSKKLLGSLASVFVRLPCGGVGVDSDTIWNEVHSAGAARLAVGCVVELVFKVATGELKNGFAVVRPPGHHAEESTPMGFCYFNSVAVAAKLLQQRLSVSKILIVDWDVHHGNGTQQAFYSDPSVLYMSLHRYDDGNFFPGSGAPDEVGTGPGVGFNVNMAFTGGLDPPMGDAEYLAAFRTVVMPIASEFAPDVVLVSSGFDAVEGHPTPLGGYNLSARCFGYLTKQLMGLAGGRIVLALEGGHDLTAICDASEACVSALLGNELDPLPEKVLQQRPNANAVRSMEKVMEIHSKYWRCLQRTTSTAGRSLIEAQTCENEEAETVTAMASLSVGVKPA”, the protein production result is “failed”.

(Values after a protein production outcome set (Wang et al. 2014).)
